± gives the standard deviation of the averaged measurements.
test system: Saccharomyces cerevisiae; test: protein stability index of tFT-peptide fusion (C-terminal peptide) (PSI (0-1 scale)); higher = more stable (slower turnover); conditions: genetic background: wild type; temperature: 37 C
Method: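 MPS profiling in S. cerevisiae of the tFT-X12 degron library: putative degron peptides plus stable controls, 12 aa, fused to the C-terminus of a sfGFP-mCherry timer. Cells are FACS-sorted into 8 mCherry/sfGFP bins and deep-sequenced. PSI runs from 0 (unstable) to 1 (stable). Backgrounds are wild type, das1Δ and doa10Δ at 30 °C, and wild type, das1Δ, cdc34-1 and cdc53-1 at 37 °C; 2-3 technical replicates each.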
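Further: PSI is a weighted mean of sequencing reads over stability bins, variants kept only with over 10 reads, mCherry proximal and sfGFP distal, peptide attached via GGGS linker.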

| Sequence | protein stability index |
| --- | --- |
| RLILAIVVSGGL | 0.457 ± 0.03 |
| RLVGVRWEVCNL | 0.863 ± 0.019 |
| RNNLHKKIRRGY | 0.458 ± 0.013 |
| RRLRPQTVAFLS | 0.278 ± 0.0083 |
| RRVLVVPCIWHM | 0.416 ± 0.022 |
| RSGWWQWGRPGT | 0.734 ± 0.025 |
| RSIAFLLGQFLS | 0.637 ± 0.016 |
| RSKLGVLVILWF | 0.448 ± 0.0055 |
| RSYAYIIVATVA | 0.214 ± 0.024 |
| RTALSSPRPALL | 0.733 ± 0.0077 |
| RTFPYSALSFVS | 0.445 ± 0.048 |
| RVFRRFCCVISM | 0.439 ± 0.015 |
| RVFVGLVDFLFW | 0.57 ± 0.035 |
| RVVITYLVLSNR | 0.6445 ± 0.0056 |
| RWALPALWAYAA | 0.16 ± 0.05 |
| RWGLFIGIVIGF | 0.317 ± 0.025 |
| RYQDLSDWRRIS | 0.0794 ± 0.017 |
| RYTWHGICIVTR | 0.476 ± 0.0052 |
| SCCLLICIFFIF | 0.33 ± 0.0056 |
| SCLSYRTRLLAF | 0.504 ± 0.011 |

| Sequence | protein stability index |
| --- | --- |
| SCRCIIFVCCFW | 0.388 ± 0.023 |
| SFFVCAGFWVLC | 0.456 ± 0.0091 |
| SFLCGCVVCWLW | 0.505 ± 0.0073 |
| SFLVRFVYFFAL | 0.309 ± 0.017 |
| SFQLVFLCVLIW | 0.184 ± 0.011 |
| SFTPPRVCLCFS | 0.496 ± 0.02 |
| SFVCFFLNLFVY | 0.18 ± 0.018 |
| SGCWGRRLWFFN | 0.453 ± 0.011 |
| SIFWWWLVFILG | 0.462 ± 0.011 |
| SIIRHLFHPSST | 0.695 ± 0.018 |
| SIPFWPVLFFLL | 0.0952 ± 0.0057 |
| SIRIIVVVRGAS | 0.543 ± 0.02 |
| SLCSRLVVVAWF | 0.553 ± 0.026 |
| SLRKRILCRFEY | 0.599 ± 0.023 |
| SLSIFCLMLMLF | 0.512 ± 0.012 |
| SPPSFPPLLLLS | 0.541 ± 0.028 |
| SPSFLVIFTMLL | 0.596 ± 0.017 |
| SPSSLPRPLFLS | 0.289 ± 0.026 |
| SPVPITVAVGCR | 0.499 ± 0.018 |
| SQSNQSIIRKNV | 0.551 ± 0.069 |

| Sequence | protein stability index |
| --- | --- |
| SSCLPAPPPLPL | 0.701 ± 0.017 |
| SSFFFLFCFFPS | 0.604 ± 0.017 |
| SSFPGPPLPPDP | 0.7108 ± 0.0069 |
| SSVFRLKGLMFL | 0.448 ± 0.012 |
| SSVLLMFFCFVC | 0.252 ± 0.019 |
| SSVLWVMFVFFY | 0.387 ± 0.027 |
| SVFGLLSVCFFY | 0.549 ± 0.022 |
| SVKRVVPCLVSC | 0.486 ± 0.0031 |
| SVLSFGVFCLVG | 0.527 ± 0.013 |
| SVPRTRAPRLIS | 0.4611 ± 0.00082 |
| SVVFFYPPIFHA | 0.549 ± 0.011 |
| SVVYSVWIYLLH | 0.392 ± 0.011 |
| TEVGAWLLLCRC | 0.385 ± 0.0097 |
| TFLVWSLMAGDR | 0.459 ± 0.032 |
| TFRVLAFFCRVV | 0.3902 ± 0.0029 |
| TKGIIKKINIIM | 0.467 ± 0.09 |
| TLCCLVCSQGVV | 0.526 ± 0.01 |
| TLFSPPVLATPS | 0.644 ± 0.0088 |
| TLLSSIFLCLVL | 0.574 ± 0.022 |
| TRHIGQYIHKIT | 0.436 ± 0.0061 |

test system: Saccharomyces cerevisiae; test: as above; conditions: genetic background: wild type; temperature: 30 C

| Sequence | protein stability index |
| --- | --- |
| RLILAIVVSGGL | 0.389 ± 0.0071 |
| RLVGVRWEVCNL | 0.744 ± 0.015 |
| RNNLHKKIRRGY | 0.413 ± 0.042 |
| RRLRPQTVAFLS | 0.231 ± 0.04 |
| RRVLVVPCIWHM | 0.327 ± 0.0065 |
| RSGWWQWGRPGT | 0.752 ± 0.049 |
| RSIAFLLGQFLS | 0.467 ± 0.013 |
| RSKLGVLVILWF | 0.353 ± 0.037 |
| RSYAYIIVATVA | 0.274 ± 0.023 |
| RTALSSPRPALL | 0.7799 ± 0.006 |
| RTFPYSALSFVS | 0.457 ± 0.013 |
| RVFRRFCCVISM | 0.366 ± 0.025 |
| RVFVGLVDFLFW | 0.471 ± 0.072 |
| RVVITYLVLSNR | 0.547 ± 0.094 |
| RWALPALWAYAA | 0.146 ± 0.094 |
| RWGLFIGIVIGF | 0.337 ± 0.021 |
| RYQDLSDWRRIS | 0.159 ± 0.0075 |
| RYTWHGICIVTR | 0.4401 ± 0.0033 |
| SCCLLICIFFIF | 0.297 ± 0.0023 |
| SCLSYRTRLLAF | 0.49 ± 0.0059 |

| Sequence | protein stability index |
| --- | --- |
| SCRCIIFVCCFW | 0.384 ± 0.011 |
| SFFVCAGFWVLC | 0.363 ± 0.024 |
| SFLCGCVVCWLW | 0.449 ± 0.04 |
| SFLVRFVYFFAL | 0.314 ± 0.019 |
| SFQLVFLCVLIW | 0.218 ± 0.029 |
| SFTPPRVCLCFS | 0.3999 ± 0.0022 |
| SFVCFFLNLFVY | 0.164 ± 0.0077 |
| SGCWGRRLWFFN | 0.325 ± 0.065 |
| SIFWWWLVFILG | 0.418 ± 0.085 |
| SIIRHLFHPSST | 0.709 ± 0.013 |
| SIPFWPVLFFLL | 0.14 ± 0.033 |
| SIRIIVVVRGAS | 0.382 ± 0.12 |
| SLCSRLVVVAWF | 0.494 ± 0.024 |
| SLRKRILCRFEY | 0.511 ± 0.023 |
| SLSIFCLMLMLF | 0.4537 ± 0.0037 |
| SPPSFPPLLLLS | 0.48 ± 0.022 |
| SPSFLVIFTMLL | 0.468 ± 0.015 |
| SPSSLPRPLFLS | 0.261 ± 0.053 |
| SPVPITVAVGCR | 0.407 ± 0.029 |
| SQSNQSIIRKNV | 0.453 ± 0.02 |

| Sequence | protein stability index |
| --- | --- |
| SSCLPAPPPLPL | 0.4965 ± 0.0048 |
| SSFFFLFCFFPS | 0.471 ± 0.047 |
| SSFPGPPLPPDP | 0.59 ± 0.17 |
| SSVFRLKGLMFL | 0.442 ± 0.038 |
| SSVLLMFFCFVC | 0.262 ± 0.023 |
| SSVLWVMFVFFY | 0.436 ± 0.058 |
| SVFGLLSVCFFY | 0.472 ± 0.019 |
| SVKRVVPCLVSC | 0.45 ± 0.063 |
| SVLSFGVFCLVG | 0.538 ± 0.13 |
| SVPRTRAPRLIS | 0.384 ± 0.041 |
| SVVFFYPPIFHA | 0.437 ± 0.044 |
| SVVYSVWIYLLH | 0.309 ± 0.0075 |
| TEVGAWLLLCRC | 0.363 ± 0.009 |
| TFLVWSLMAGDR | 0.464 ± 0.03 |
| TFRVLAFFCRVV | 0.367 ± 0.012 |
| TKGIIKKINIIM | 0.36 ± 0.014 |
| TLCCLVCSQGVV | 0.484 ± 0.016 |
| TLFSPPVLATPS | 0.0225 ± 0.011 |
| TLLSSIFLCLVL | 0.541 ± 0.1 |
| TRHIGQYIHKIT | 0.339 ± 0.081 |

From the supplement of paper PMC10724198
